From patent US11629364B2, “Methods for synthesizing anticoagulant polysaccharides” (OPTIMVIA, LLC, priority 2019, dated 2023)

assay: NST activity: N-sulfated products detected by SAX-HPLC after lyase digestion; format: biochemical; settings: PNS or NCS as sulfo donor, N-deacetylated heparosan acceptor, 37° C. overnight
Description: A study was conducted in accordance with embodiments of the present disclosure to confirm NST activity of enzymes comprising the amino acid sequence of SEQ ID NO: 2, SEQ ID NO: 4, SEQ ID NO: 6, SEQ ID NO: 8, SEQ ID NO: 10, or SEQ ID NO: 12 by detecting the presence of N-sulfated polysaccharide products formed as a result of their sulfotransfer reaction, using mass spectrometry (MS). Each engineered enzyme was purified according to the procedure of Example 1. Sulfotransferase activity was monitored in 100 μL reactions containing 50 μM of enzyme. To each purified protein solution, 20 mg of an aryl sulfate compound (either PNS or NCS) was dissolved in 2 mL of reaction buffer (50 mM IVIES pH 7.0, 2 mM CaCl2)), added to the protein solution, and incubated at 37° C. for 10 min. 2.5 mL of 2 mg/mL solution of N-deacetylated heparosan was added to protein/donor solution and incubated overnight at 37° C. The N-deacetylated heparosan was synthesized according to the protocol described in Balagurunathan, K. et al (eds.) (2015), Glycosaminoglycans: Chemistry and Biology, Methods in Molecular Biology, vol. 1229, DOI 10.1007/978-1-4939-1714-3_2, ©Springer Science+Business Media, New York, pp. 11-19 (section 3.1). To purify the N-sulfated product, the incubated reaction mixture was centrifuged the following day at 5,000×g for 10 min. The filter was washed once with 2 mL water, and centrifuged again. The filtrate was added to a 1K MWCO Dialysis membrane, dialyzed for 2 days in Milli-Q water, with water changes at 1 h, 2 h, 8 h, 16 h, 32 h, and then lyophilized.
The lyophilized N-sulfated products from each reaction were subsequently digested with a mixture of three carbon-oxygen lyases comprising the amino acid sequences of SEQ ID NO: 30, SEQ ID NO: 31, and SEQ ID NO: 32, which catalyze the β-eliminative cleavage of heparosan-based polysaccharides. Such lyases are available from New England Biolabs, among other chemical and biological commercial entities. 1 μL of each lyase was incubated with 50 μg of the lyophilized sulfated polysaccharide product and the provided digestion buffer, and incubated over 24 hours according to the packaged instructions provided by New England Biolabs with each lyase. After digestion, the lyase enzymes were inactivated by heating to 100° C. for 5 minutes. Samples were centrifuged at 14,000 rpm for 30 minutes before introduction to a strong anion exchange, high performance liquid chromatography (SAX) analysis. SAX analysis was performed on a Dionex Ultimate 3000 LC system interface. Separation was carried out on a 4.6×250 mm Waters Spherisorb analytical column with 5.0 μm particle size at 45° C. Mobile phase solution A was 2.5 mM sodium phosphate, pH 3.5, while mobile phase solution B was 2.5 mM sodium phosphate, pH 3.5, and 1.2 M Sodium perchlorate. After each sample was loaded onto the column, mobile phase solutions were applied to the column at a ratio of 98% mobile phase solution A and 2% mobile phase solution B for five minutes at a flow rate of 1.4 mL/min. After five minutes, a linear gradient of increasing mobile phase solution B was applied until the ratio of mobile phase solution A to mobile phase solution B was 50:50.

Molecule | NST sulfotransferase activity with aryl sulfate compounds
SEQ ID NO: 10: engineered aryl sulfate-dependent NST enzyme, mutant of N-sulfotransferase domain of human NDST (protein, Amino acid sequence encoding for engineered arylsulfate-dependent N-sulfotransferase variant 5, engineered aryl sulfate-dependent NST enzyme, mutant of N-sulfotransferase domain of human NDST) MSEEKDPLWQDPCEDKRHKDIWSKEKTCDRFPKLLIIGPHKTGVHALYLFLGMHPDLSSNYPSSETGNHIGFFGGHNYHKGIDWYMEFFPIPSNTTSDFYFEKSAWYFDSEVAPRRAAALLPKAKVLTILINPADRAYSWYQHQRAHDDPVALKYTFHEVITAGSDASSKLRALQNRCLVPGWYATHIERWLSAYHANQILVLDGKLLRTEPAKVMDMVQKFLGVTNTIDYHKTLAFDPKKGFWCQLLEGGKTKCLGKSVGRKYPEMDLDSRAFLKDYYRDHNIELSKLLYKMGQTLPTWLREDLQNTR | activity with NCS only
SEQ ID NO: 2: engineered aryl sulfate-dependent NST enzyme, mutant of N-sulfotransferase domain of human NDST (protein, Amino acid sequence encoding for engineered arylsulfate-dependent N-sulfotransferase variant 1, engineered aryl sulfate-dependent NST enzyme, mutant of N-sulfotransferase domain of human NDST) MSEEKDPLWQDPCEDKRHKDIWSKEKTCDRFPKLLIIGPQKTGAWALYHFLGMHPDLSSNYPSSETHGSIQFFNGHNYHKGIDWYMEFFPIPSNTTSDFYFEKSANYFDSEVAPRRAAALLPKAKVLTILINPADRAYSWYQHQRAHDDPVALKYTFHEVITAGSDASSKLRALQNRCLVPGWYATHIERWLSAYHANQILVLDGKLLRTEPAKVMDMVQKFLGVTNTIDYHKTLAFDPKKGFWCQLLEGGKTKCLGKSHGRKYPEMDLDSRAFLKDYYRDHNIELSKLLYKMGQTLPTWLREDLQNTR | activity with NCS only
SEQ ID NO: 12: engineered aryl sulfate-dependent NST enzyme, mutant of N-sulfotransferase domain of human NDST (protein, Amino acid sequence encoding for engineered arylsulfate-dependent N-sulfotransferase variant 6, engineered aryl sulfate-dependent NST enzyme, mutant of N-sulfotransferase domain of human NDST) MSEEKDPLWQDPCEDKRHKDIWSKEKTCDRFPKLLIIGPAKTGAWLLHHFLGMHPDLSSNYPSSETHSSIQFFNGHNYHKGIDWYMEFFPIPSNTTSDFYFETSANYFDSEVAPRRAAALLPKAKVLTILINPADRAYSWYQHQRAHDDPVALKYTFHEVITAGSDASSKLRALQNRCLVPGWYATHIERWLSAYHANQILVLDGKLLRTEPAKVMDMVQKFLGVTNTIDYHKTLAFDPKKGFWCQLLEGGKTKCAHKGLGRKYPEMDLDSRAFLKDYYRDHNIELSKLLYKMGQTLPTWLREDLQNTR | activity with PNS only
SEQ ID NO: 4: engineered aryl sulfate-dependent NST enzyme, mutant of N-sulfotransferase domain of human NDST (protein, Amino acid sequence encoding for engineered arylsulfate-dependent N-sulfotransferase variant 2, engineered aryl sulfate-dependent NST enzyme, mutant of N-sulfotransferase domain of human NDST) MSEEKDPLWQDPCEDKRHKDIWSKEKTCDRFPKLLIIGPSKTGAFLLTHFLGMHPDLSSNYPSSETGHSIQFFNGHNYHKGIDWYMEFFPIPSNTTSDFYFETSSNYFDSEVAPRRAAALLPKAKVLTILINPADRAYSWYQHQRAHDDPVALKYTFHEVITAGSDASSKLRALQNRCLVPGWYATHIERWLSAYHANQILVLDGKLLRTEPAKVMDMVQKFLGVTNTIDYHKTLAFDPKKGFWCQLLEGGKTKCHGKRWGRKYPEMDLDSRAFLKDYYRDHNIELSKLLYKMGQTLPTWLREDLQNTR | activity with NCS only

assay: 6OST activity: 6-O sulfated products detected by LCMS after lyase digestion; format: biochemical; settings: procedures of Example 4; expected
Description: A study was conducted in accordance with embodiments of the present disclosure to confirm 6OST activity of enzymes comprising the amino acid sequence of SEQ ID NO: 18, SEQ ID NO: 20, or SEQ ID NO: 22 by detecting the presence of 6-O sulfated polysaccharide products as a result of their sulfotransfer reaction, using a similar LCMS procedure as in Example 3, except that the sulfo acceptor polysaccharide was prepared by chemically 6-O desulfating commercially available heparin (CAS code: 9041-08-1, available from Millipore Sigma), according to the procedure provided by Kariya, Y., et al., (2000) J. Biol. Chem. 275 (34):25949-25958).

Molecule | 6OST activity: N,2,6-HS products by MS
SEQ ID NO: 59: full-length mutant of isoform 3 of the mouse 6OST enzyme, SEQ ID NO: 18 mutations (protein, Amino acid sequence encoding for engineered arylsulfate-dependent 6-O-sulfotransferase variant 12) MDERFNKWLLTPVLTLLFVVIMYQYVSPSCTSSCTNFGEQLRSGEARPPAVPSPARRAQAPLDEWERRPQLPPPPRGPPEGSRGVAAPEDEDEDPGDPEEEEEEEEEEPDPEAPENGSLPRFVPRFNFTLKDLTRFVDFNIKGRDVIVFLHIGHTGGTTFGRHLVKNIRLEQPCSCKAGQKKCTCHRPGKKETWLFSRFSTGWSCGTNADWTELTNCVPAIMEKKDCPRNHSHTRNFYYITMLRDPVSRYLGGWKHHQRGGTNKTSLHMCDGRSPTPDELPTCYPGDDWSGVSLREFMDCSYNLANNRQVRMLADLSLVGCYNLTFMNESERNTILLQSAKNNLKNMAFFGLTEFQRKTQFLFERTFNLKFISPFTQVNITRASNVDINDGARQHIEELNFLDMQLYEYAKDLFQQRYHHTKQLEHQRDRQKRREERRLQREHRAHRWPKEDRAMEGTVTEDYNSQVVRW | confirm the presence of N,2,6-HS products
SEQ ID NO: 61: full-length mutant of isoform 3 of the mouse 6OST enzyme, SEQ ID NO: 22 mutations (protein, Amino acid sequence encoding for engineered arylsulfate-dependent 6-O-sulfotransferase variant 13) MDERFNKWLLTPVLTLLFVVIMYQYVSPSCTSSCTNFGEQLRSGEARPPAVPSPARRAQAPLDEWERRPQLPPPPRGPPEGSRGVAAPEDEDEDPGDPEEEEEEEEEEPDPEAPENGSLPRFVPRFNFTLKDLTRFVDFNIKGRDVIVFLHIGHTGGTTFGRHLVKNIRLEQPCSCKAGQKKCTCHRPGKKETWLFSRFSTGWSCGSHADWTELTNCVPAIMEKKDCPRNHSHTRNFYYITMLRDPVSRYLSGWKHHQRGGANKTSLHMCDGRSPTPDELPTCYPGDDWSGVSLREFMDCSYNLGNNRQVRMLADLSLVGCYNLTFMNESERNTILLQSAKNNLKNMAFFGLTEFQRKTQFLFERTFNLKFISPFTQFNITRASNVDINDGARQHIEELNFLDMQLYEYAKDLFQQRYHHTKQLEHQRDRQKRREERRLQREHRAHRWPKEDRAMEGTVTEDYNSQVVRW | confirm the presence of N,2,6-HS products
SEQ ID NO: 60: full-length mutant of isoform 3 of the mouse 6OST enzyme, SEQ ID NO: 20 mutations (protein, Amino acid sequence encoding for engineered arylsulfate-dependent 6-O-sulfotransferase variant 13) MDERFNKWLLTPVLTLLFVVIMYQYVSPSCTSSCTNFGEQLRSGEARPPAVPSPARRAQAPLDEWERRPQLPPPPRGPPEGSRGVAAPEDEDEDPGDPEEEEEEEEEEPDPEAPENGSLPRFVPRFNFTLKDLTRFVDFNIKGRDVIVFLHIGHTGGTTFGRHLVKNIRLEQPCSCKAGQKKCTCHRPGKKETWLFSRFSTGWSCGTRADWTELTNCVPAIMEKKDCPRNHSHTRNFYYITMLRDPVSRYLSHWKHTQRGGANKTGLHMCDGRSPTPDELPTCYPGDDWSGVSLREFMDCSYNLGNNRQVRMLADLSLVGCYNLTFMNESERNTILLQSAKNNLKNMAFFGLTEFQRKTQFLFERTFNLKFISPFTQFNITRASNVDINDGARQHIEELNFLDMQLYEYAKDLFQQRYHHTKQLEHQRDRQKRREERRLQREHRAHRWPKEDRAMEGTVTEDYNSQVVRW | confirm the presence of N,2,6-HS products
